Two substances from publication PMC7010799 can be followed below.

For assay [1], the target named is human NatA complex (hNAA15/hNAA10) (human) (UniProt Q9BXJ9).
The target is the same in assay [2]. The assay is described as follows: ITC; MicroCal iTC200, 20 °C; 25 mM HEPES pH 7.0, 200 mM NaCl, 1 mM DTT; 15 μM hNatA or hNatE in the cell, 150 μM MBP-HYPK in the syringe.

pKd: −log10 of the molar value.

human NatA complex (hNAA15/hNAA10) (human), sequence (Q9BXJ9 whole entry, chain 1 of 2): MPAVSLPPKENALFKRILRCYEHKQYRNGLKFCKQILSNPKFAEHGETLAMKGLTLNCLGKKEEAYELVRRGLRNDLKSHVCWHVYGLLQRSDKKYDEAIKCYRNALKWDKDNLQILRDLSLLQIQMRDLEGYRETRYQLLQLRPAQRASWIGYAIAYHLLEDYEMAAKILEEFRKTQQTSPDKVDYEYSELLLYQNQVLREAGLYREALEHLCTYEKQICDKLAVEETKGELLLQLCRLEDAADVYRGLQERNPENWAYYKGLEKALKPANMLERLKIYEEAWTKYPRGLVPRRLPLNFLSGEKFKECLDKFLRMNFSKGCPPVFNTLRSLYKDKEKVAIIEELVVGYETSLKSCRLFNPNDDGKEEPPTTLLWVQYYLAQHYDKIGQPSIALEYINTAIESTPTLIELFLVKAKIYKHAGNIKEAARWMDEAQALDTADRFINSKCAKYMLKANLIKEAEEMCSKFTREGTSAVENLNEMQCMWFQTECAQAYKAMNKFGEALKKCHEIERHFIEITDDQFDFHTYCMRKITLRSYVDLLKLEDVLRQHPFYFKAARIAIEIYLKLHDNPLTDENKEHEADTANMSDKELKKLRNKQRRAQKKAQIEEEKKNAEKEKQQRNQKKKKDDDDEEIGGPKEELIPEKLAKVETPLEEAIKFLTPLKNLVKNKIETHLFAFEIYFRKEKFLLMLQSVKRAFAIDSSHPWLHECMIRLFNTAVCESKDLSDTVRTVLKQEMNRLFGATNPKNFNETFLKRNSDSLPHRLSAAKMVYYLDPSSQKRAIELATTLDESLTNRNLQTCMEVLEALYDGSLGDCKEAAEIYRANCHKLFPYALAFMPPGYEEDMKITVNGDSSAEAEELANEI
human NatA complex (hNAA15/hNAA10) (human), sequence (P41227 whole entry, chain 2 of 2, further chain): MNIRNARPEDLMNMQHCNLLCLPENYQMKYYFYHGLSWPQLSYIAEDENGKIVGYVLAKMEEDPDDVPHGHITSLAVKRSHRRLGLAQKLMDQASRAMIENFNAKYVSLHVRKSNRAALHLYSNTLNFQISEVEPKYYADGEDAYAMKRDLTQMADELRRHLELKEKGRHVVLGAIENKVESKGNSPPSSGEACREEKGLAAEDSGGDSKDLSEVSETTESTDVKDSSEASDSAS
maltose-binding protein (MBP) tagged HYPK (from UniProt Q9NX55 1-121) (natural protein; other documents disagree on this pair), sequence (Q9NX55 whole entry): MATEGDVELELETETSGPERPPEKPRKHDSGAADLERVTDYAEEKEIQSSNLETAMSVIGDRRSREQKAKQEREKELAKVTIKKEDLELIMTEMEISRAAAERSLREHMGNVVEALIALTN
maltose-binding protein (MBP) tagged HYPK (from UniProt Q9NX55 1-121) (natural protein), sequence (Q9NX55 whole entry): as above

Turning to “maltose-binding protein (MBP) tagged HYPK (from UniProt Q9NX55 1-121) (natural protein)”, the inhibition of hNatA (100 nM) acetylation activity against SASE peptide, MBP-HYPK titrated in assay [1] was 90%.

For “maltose-binding protein (MBP) tagged HYPK (from UniProt Q9NX55 1-121) (natural protein; other documents disagree on this pair)”, the negative logarithm of the Kd (pKd) in assay [2] was 7.52.
